Measured values published in paper PMC3184076 (PLoS ONE, 2011).

Experiments:
Centromere B autoantigen = target: T1, Centromere B autoantigen (Homo sapiens (assumed), UniProt P07199); test: AtheNA Multi-Lyte ANA II Test Kit (autoantigen immunoassay); kit of Zeus Scientific, per the manufacturer's instructions
T1 construct: also called centromere B autoantigens

MPER26 peptide = MPER26 peptide (HIV-1, strain  (residues …, biotin on the N-terminus)); test: SPR; details: both partners purified
[1] = target: T2, MPR.03 biotinylated peptide (HIV-1, synthetic MPER sequence, strain …); test: SPR; details: both partners purified
T2 construct: also called MPR.03 peptide; MPER peptide; source: synthetic peptide, bought: CPC Scientific Inc

MPER656 peptide = target: T3, MPER656 peptide (HIV-1, strain  (residues …)); test: SPR; details: both partners purified
T3 construct: also called wild type MPER656 peptide
T3 chain: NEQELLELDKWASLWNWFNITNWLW

JR-FL gp140 = target: T4, JR-FL gp140 (HIV-1 subtype B, JR-FL, UniProt Q75760, strain); test: ELISA
T4 construct: also called JR-FL gp140 envelope protein; source: generated as described [41]

T1 sequence (P07199 whole entry): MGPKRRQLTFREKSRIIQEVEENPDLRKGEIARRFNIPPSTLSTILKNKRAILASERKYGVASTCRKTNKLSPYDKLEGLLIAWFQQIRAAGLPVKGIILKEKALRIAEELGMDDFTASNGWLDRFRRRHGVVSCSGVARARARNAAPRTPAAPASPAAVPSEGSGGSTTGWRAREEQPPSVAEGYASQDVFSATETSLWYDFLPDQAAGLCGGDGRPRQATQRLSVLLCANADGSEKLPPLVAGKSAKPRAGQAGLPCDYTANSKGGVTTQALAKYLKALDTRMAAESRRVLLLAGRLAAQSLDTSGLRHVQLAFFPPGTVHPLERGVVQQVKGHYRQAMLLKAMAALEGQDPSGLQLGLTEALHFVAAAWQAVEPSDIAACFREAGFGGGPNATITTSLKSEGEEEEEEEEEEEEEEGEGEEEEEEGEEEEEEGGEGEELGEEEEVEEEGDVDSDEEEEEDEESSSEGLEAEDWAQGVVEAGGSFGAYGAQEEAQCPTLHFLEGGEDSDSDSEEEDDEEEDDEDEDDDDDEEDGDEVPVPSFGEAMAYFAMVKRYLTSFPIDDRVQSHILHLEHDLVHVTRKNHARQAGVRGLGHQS

B1: CAP206-CH12 recombinant human monoclonal antibody (antibody, V domains shown)
VH: QVQLVQSGAEVKKPGSSVKLSCKASGGTFGSYSVTWVRQAPGQTFEWVGRIVPWVGVPNYAPKFQGRVTITADKSSTVYMELTSLRFEDTAVYYCATAYEASGLSYYYYMDDWGKGTTVTVSS
VL: EIVLTQSPGTLSLSPGERATLSCRASQSVTSSYLAWFRHKPGQAPRLLIYGASYRGTGIPDRISGSGSGTDFTLTISRLEPEDFAVYYCQHYGGSPGMYTFGQGTRLEIK
notes: also called CAP206-CH12 mAb; CAP-206-CH12 mAb
Question: What does the source list for B1?
Answer: binding result (Centromere B autoantigen): binds; Kd (MPER26 peptide): 4.95 nM; Kd [1]: 7.3 nM; Kd (MPER656 peptide): 5.15 nM; binding result (JR-FL gp140): no binding
